Laboratory results from PMC12403569, “The regulatory network of Coprinopsis cinerea transcription factor Skn7 collaborates with bHLH1 during fungal-fungal interactions”.

T1: Skn7 DBD (Coprinopsis cinerea, UniProt A8PG35 214-443)
T1 sequence: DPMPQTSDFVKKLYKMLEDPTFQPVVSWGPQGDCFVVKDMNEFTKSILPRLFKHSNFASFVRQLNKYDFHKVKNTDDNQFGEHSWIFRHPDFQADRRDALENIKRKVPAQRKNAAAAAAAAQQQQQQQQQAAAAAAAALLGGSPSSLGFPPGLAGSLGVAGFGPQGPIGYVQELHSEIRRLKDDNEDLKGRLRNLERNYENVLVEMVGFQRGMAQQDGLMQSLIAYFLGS

T2: truncated bHLH1 (Coprinopsis cinerea, UniProt A8P5K0 311-490)
T2 sequence: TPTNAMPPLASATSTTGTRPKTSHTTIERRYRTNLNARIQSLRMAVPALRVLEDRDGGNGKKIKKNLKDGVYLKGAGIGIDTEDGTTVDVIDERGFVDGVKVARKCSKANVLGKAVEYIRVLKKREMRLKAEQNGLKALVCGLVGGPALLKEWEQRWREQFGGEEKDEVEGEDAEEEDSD

B1: easA promoter probe (dsDNA)
DNA 1: TGGTGGACAAGTTTCCGT
DNA 2: ACGGAAACTTGTCCACCA
B2: nrps promoter probe (dsDNA)
DNA 1: TAACCATGTCCAACTCTAAT
DNA 2: ATTAGAGTTGGACATGGTTA
B3: sod2 promoter probe (dsDNA)
DNA 1: AGAAGGATCTAGAGACTCGG
DNA 2: CCGAGTCTCTAGATCCTTCT
B4: lcc9 promoter probe for bHLH1 (dsDNA)
DNA 1: ATTCATTCTGTCTAGAATGGG
DNA 2: CCCATTCTAGACAGAATGAAT
B5: gst promoter probe (dsDNA)
DNA 1: GATGTGTCGACGTCTGA
DNA 2: TCAGACGTCGACACATC
B6: lcc9 promoter probe (dsDNA)
DNA 1: CATTCTGTCTAGAAT
DNA 2: ATTCTAGACAGAATG

Tests used:
[1] = target: T1, Skn7 DBD; test: EMSA; poly d(I-C); 25 mM HEPES, 4 mM DTT, 100 mM KCl, 2 mM MgCl2, 10% glycerol, 0.01 mg/mL BSA, pH 7.3; 200 ng probe, 200 ng poly d(I-C), 20 µL; temperature not stated; settings: protein: recombinant; tags: His-SUMO, removed with Ulp1; label: 5'-6-carboxyfluorescein
[2] = target: T2, truncated bHLH1; test: EMSA; 25 mM HEPES, 4 mM DTT, 100 mM KCl, 2 mM MgCl2, 10% glycerol, 0.01 mg/mL BSA, pH 7.3; 200 ng probe, 200 ng poly d(I-C), 20 µL; temperature not stated; settings: protein: recombinant; tags: His; chain copies: 2

| Binder | binding result [1] | binding result [2] |
| --- | --- | --- |
| B1 | binds |  |
| B2 | binds |  |
| B3 | binds |  |
| B4 |  | binds |
| B5 | binds |  |
| B6 | binds |  |
